Reference: article PMC3384689 (Biochemistry, 2012)

B1: full-length Thermotoga maritima FliG (FliGNMC) (natural protein, UniProt Q9WY63 1-335, looked up)
chain: MPEKKIDGRRKAAVLLVALGPEKAAQVMKHLDEETVEQLVVEIANIGRVTPEEKKQVLEEFLSLAKAKEMISEGGIEYAKKVLEKAFGPERARKIIERLTSSLQVKPFSFVRDTDPVQLVNFLQSEHPQTIAVVLSYLDPPVAAQILGALPEELQTEVLKRIALLERTSPEVVKEIERNLEKKISGFVSRTFSKVGGIDTAAEIMNNLDRTTEKKIMDKLVQENPELADEIRRRMFVFEDILKLDDRSIQLVLREVDTRDLALALKGASDELKEKIFKNMSKRAAALLKDELEYMGPVRLKDVEEAQQKIINIIRRLEEAGEIVIARGGGEELIM
B2: full-length FliG: full-length T. maritima FliGNMC, including a N-terminal 6X-His tag (protein)
chain: B1 chain
modifications: left off: 6X-His, N-terminal, state not stated
B3: Thermotoga maritima FliG N-terminal domain construct, residues 1–102 (FliGN) (domain or fragment, UniProt Q9WY63 1-102, looked up)
chain: MPEKKIDGRRKAAVLLVALGPEKAAQVMKHLDEETVEQLVVEIANIGRVTPEEKKQVLEEFLSLAKAKEMISEGGIEYAKKVLEKAFGPERARKIIERLTSS
modifications: 15N, 2H (and 13C) isotope labelling in the NMR experiments

Tests used:
[1] = molecular target: the molecule itself; test: SEC-MALS
[2] = system: full-length FliG; test: Size-exclusion chromatography / light scattering, full-length FliG; assay type: physicochemical, T. maritima; conditions: SEC / static light scattering / refractive index; ~1 mg/mL, 25 mM Tris, 200 mM NaCl, 0.5 mM EDTA, pH 7.4
[3] = molecular target: synthetic FliF_(495–532) peptide of Thermotoga maritima FliF (Thermotoga maritima); test: other fluorescence titration
[4] = molecular target: synthetic FliF_(512–532) peptide of Thermotoga maritima FliF (Thermotoga maritima); test: other fluorescence titration

Molecule | stoichiometry N [1] | Calculated Mw of full-length FliG, absence of peptide [2] | Oligomeric state of full-length FliG, absence of peptide [2] | stoichiometry N [3] | Kd [4]
B1 | 2 | – | – | – | –
B2 | – | ≈ 79 kD | tight dimer | – | –
B3 | 2 | – | – | 1 | 84 nM
